Columns and labels:
[1] = biological target: NisC (lantibiotic cyclase) (Lactococcus lactis) (UniProt Q03202); test: SEC-MALS; 20 μM NisB and 200 μM prenisin peptide variant kept constant, NisC varied from 10 μM to 160 μM; 50 mM HEPES-NaOH, pH 7.5, 500 mM NaCl
[2] = biological target: NisB (lantibiotic dehydratase) (Lactococcus lactis) (UniProt P20103); test: as above
[3] = biological target: NisC (lantibiotic cyclase) (Lactococcus lactis) (UniProt Q03202); test: SEC-MALS; 20 μM NisC or 20 μM NisB incubated with 200 μM unmodified prenisin peptide for 1 h at 25 °C; 50 mM HEPES-NaOH, pH 7.5, 500 mM NaCl
[4] = biological target: NisB (lantibiotic dehydratase) (Lactococcus lactis) (UniProt P20103); test: as above
[5] = biological target: the molecule itself; test: SEC-MALS; isolated NisB or NisC, 200 μL of a 20 μM solution; 50 mM HEPES-NaOH, pH 7.5, 500 mM NaCl

NisC (lantibiotic cyclase) (Lactococcus lactis), sequence (Q03202 whole entry): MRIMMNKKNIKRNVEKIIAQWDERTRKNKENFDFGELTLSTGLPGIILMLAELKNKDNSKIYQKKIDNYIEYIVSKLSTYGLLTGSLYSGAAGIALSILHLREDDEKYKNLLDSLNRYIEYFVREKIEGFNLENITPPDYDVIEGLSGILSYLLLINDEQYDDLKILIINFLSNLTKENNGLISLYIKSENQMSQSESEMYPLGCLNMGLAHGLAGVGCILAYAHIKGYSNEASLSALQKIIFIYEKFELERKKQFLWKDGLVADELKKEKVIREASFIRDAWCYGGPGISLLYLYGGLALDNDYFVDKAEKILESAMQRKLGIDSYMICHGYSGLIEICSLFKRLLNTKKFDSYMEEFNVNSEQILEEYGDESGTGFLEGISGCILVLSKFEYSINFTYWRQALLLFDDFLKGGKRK

| Molecule | stoichiometry N (prenisin per NisC monomer) [1] | stoichiometry N (prenisin per NisB dimer) [2] | stoichiometry N (per NisC monomer) [3] | stoichiometry N (per NisB dimer) [4] | stoichiometry N [5] |
| --- | --- | --- | --- | --- | --- |
| unmodified prenisin peptide | 1 | 1 | 1 | 1 | – |
| NisB (lantibiotic dehydratase) (enzyme, Lactococcus lactis, Nisin dehydratase NisB of Lactococcus lactis; theoretical molecular weight of the dimer 236.6 kDa; Dimer by MALS-SEC and SAXS; also called dehydratase NisB; apo-NisB; source: L. lactis NZ9000, homologously expressed, purified (IMAC, SEC)) MIKSSFKAQPFLVRNTILCPNDKRSFTEYTQVIETVSKNKVFLEQLLLANPKLYDVMQKYNAGLLKKKRVKKLFESIYKYYKRSYLRSTPFGLFSETSIGVFSKSSQYKLMGKTTKGIRLDTQWLIRLVHKMEVDFSKKLSFTRNNANYKFGDRVFQVYTINSSELEEVNIKYTNVYQIISEFCENDYQKYEDICETVTLCYGDEYRELSEQYLGSLIVNHYLISNLQKDLLSDFSWNTFLTKVEAIDEDKKYIIPLKKVQKFIQEYSEIEIGEGIEKLKEIYQEMSQILENDNYIQIDLISDSEINFDVKQKQQLEHLAEFLGNTTKSVRRTYLDDYKDKFIEKYGVDQEVQITELFDSTFGIGAPYNYNHPRNDFYESEPSTLYYSEEEREKYLSMYVEAVKNHNVINLDDLESHYQKMDLEKKSELQGLELFLNLAKEYEKDIFILGDIVGNNNLGGASGRFSALSPELTSYHRTIVDSVERENENKEITSCEIVFLPENIRHANVMHTSIMRRKVLPFFTSTSHNEVLLTNIYIGIDEKEKFYARDISTQEVLKFYITSMYNKTLFSNELRFLYEISLDDKFGNLPWELIYRDFDYIPRLVFDEIVISPAKWKIWGRDVNSKMTIRELIQSKEIPKEFYIVNGDNKVYLSQKNPLDMEILESAIKKSSKRKDFIELQEYFEDENIINKGEKGRVADVVVPFIRTRALGNEGRAFIREKRVSVERREKLPFNEWLYLKLYISINRQNEFLLSYLPDIQKIVANLGGNLFFLRYTDPKPHIRLRIKCSDLFLAYGSILEILKRSRKNRIMSTFDISIYDQEVERYGGFDTLELSEAIFCADSKIIPNLLTLIKDTNNDWKVDDVSILVNYLYLKCFFQNDNKKILNFLNLVSTKKVKENVNEKIEHYLKLLKVNNLGDQIFYDKNFKELKHAIKNLFLKMIAQDFELQKVYSIIDSIIHVHNNRLIGIERDKEKLIYYTLQRLFVSEEYMK | – | – | – | – | 2 |
